{"source": "paper PMC12802955", "biological_target": "H234A mutant of SARS-CoV-2 nsp15 with an N-terminal Strep-Tag II (SARS-CoV-2)", "experiment": "cryo-EM structure", "data": [{"substance": "H234A mutant of SARS-CoV-2 nsp15 with an N-terminal Strep-Tag II (enzyme)", "values": [{"measurement": "stoichiometry N", "result": 6}]}]}
